Experimental data from US20150118260A1 (GENERAL HOSPITAL, published 2015).

B1: glycosylated soluble porcine CTLA-4 carrying 6xHis tag in the C-terminus (aa 38-161, 124 aa + 6xHis) (receptor)
chain: MHVAQPAVVLANSRGVASFVCEYGSAGKAAEVRVTVLRRAGSQMTEVCAATYTVEDELTFLDDSTCTGTSTENKVNLTIQGLRAVDTGLYICKVELLYPPPYYVGMGNGTQIYVIDPEPCPDSDHHHHHH
modifications: N-glycosylated completely or partially (Pichia pastoris); labeled with Sulfo-NHS biotin in the direct binding and KD assays, non-biotinylated in the blocking assay
notes: Expressed in Pichia pastoris X33; The entry includes the 6xHis tag; also called pCTLA-4-Gly; pCTLA4-6xHis
B2: non-N-glycosylated soluble porcine CTLA-4 carrying 6xHis tag (aa 38-161, 124 aa + 6xHis; N76A, N108A) (receptor)
chain: MHVAQPAVVLANSRGVASFVCEYGSAGKAAEVRVTVLRRAGSQMTEVCAATYTVEDELTFLDDSTCTGTSTENKVALTIQGLRAVDTGLYICKVELLYPPPYYVGMGAGTQIYVIDPEPCPDSDHHHHHH
modifications: labeled with Sulfo-NHS biotin in the direct binding and KD assays, non-biotinylated in the blocking assay
notes: also called pCTLA-4-Non-N-Gly; non-N-glycosylated porcine soluble CTLA-4

Experiments:
[1] = target: T1, human CD80 on the human CD80-expressing leukemia cell line THP-1 (human, UniProt P33681 35-288); assay: flow cytometry with biotinylated soluble porcine CTLA-4 on THP-1 cells
T1 construct: whole, on cells
T1 sequence (looked up): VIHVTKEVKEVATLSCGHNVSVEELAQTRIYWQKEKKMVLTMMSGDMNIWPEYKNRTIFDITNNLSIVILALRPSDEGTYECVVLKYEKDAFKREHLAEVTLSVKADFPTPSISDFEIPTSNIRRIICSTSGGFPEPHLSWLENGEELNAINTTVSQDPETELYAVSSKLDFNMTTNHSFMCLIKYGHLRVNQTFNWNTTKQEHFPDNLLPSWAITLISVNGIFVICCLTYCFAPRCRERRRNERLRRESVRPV

[2] = target: T2, porcine CD80 on the porcine CD80-expressing B-cell lymphoma cell line LCL13271-5E4 (porcine); assay: flow cytometry on LCL13271-5E4 cells, MFI against concentration of biotinylated protein, non-linear least-squares fit
T2 construct: whole, on cells; The cell line was picked as CD80-expressing by staining with hamster anti-mouse CD80 mAb 16-10A1; CD86 on these cells is not addressed; also called LC13271-5E4

Binder | binding result [1] | Kd [2]
B1 | no binding | 13 nM
B2 | no binding | 13 nM
